Results as given in PMC6167206 (Molecular microbiology, 2018).

Molecular target: the molecule itself
Assay: cross-linking

B1: AcpA-His (natural protein)
chain: MEKDISRKIDLLNILIEEKRWFTLFELEKNLNCSSKTIRKDISIINDLLPKTIFIHSKKGKGVKLSLPQNQSISEAISNLLKKSLTFLAIQQLLEERSNTVTSLADKLYLPISSTNIVLKRVSKYIKKFGLSLEKKPLRIVGDEFQIILMFSERYLESYPDTEWPFTEYKEEMLIDYINYIEEKLEIVFYSNDKRRMAFIMTILFKRIKQGHKVKFSEWIIKETMESIYYKKIFEGKNVIKVNKNRSLNIEEQVLLVIMVKLSRYVSKDENNLKQEELVLYKEGESTTYTYVKNFISILEQELKIDLNNNEEFVYGMIEYCREAFHILKFIPILKAPEKDTCKYIKKHYEETFYLVKRAYNKWGAEMKLTDIPDEEIAKVTMRIVAIGKQHNINRKKVLLITGEGKSWEEYMKSRINKRYGDQLKFVGGHAKILNGNTDNIDNIDIDFIITTVPLNFSWKSIVYVSPILQERDFYEIGIFASK
stoichiometry N: 2
